Biological target: T1, PhyB_(1-651)-Avitag-His6 (A. thaliana, UniProt P14713 1-651, phycocyanobilin chromophore; biotin on the Avitag)
T1 construct: phytochrome B (PhyB), Arabidopsis thaliana, the light-responsive N-terminal 651 amino acids; 740 nm light puts them in the OFF state; also called PhyB(660); PhyB(740); source: E. coli BL21(DE3) co-transformed with p171 (phycocyanobilin production), 50 uM biotin in the medium, purified (Ni-NTA); not shown: Avitag, C-terminal, kept; His6, C-terminal, kept
T1 sequence (looked up): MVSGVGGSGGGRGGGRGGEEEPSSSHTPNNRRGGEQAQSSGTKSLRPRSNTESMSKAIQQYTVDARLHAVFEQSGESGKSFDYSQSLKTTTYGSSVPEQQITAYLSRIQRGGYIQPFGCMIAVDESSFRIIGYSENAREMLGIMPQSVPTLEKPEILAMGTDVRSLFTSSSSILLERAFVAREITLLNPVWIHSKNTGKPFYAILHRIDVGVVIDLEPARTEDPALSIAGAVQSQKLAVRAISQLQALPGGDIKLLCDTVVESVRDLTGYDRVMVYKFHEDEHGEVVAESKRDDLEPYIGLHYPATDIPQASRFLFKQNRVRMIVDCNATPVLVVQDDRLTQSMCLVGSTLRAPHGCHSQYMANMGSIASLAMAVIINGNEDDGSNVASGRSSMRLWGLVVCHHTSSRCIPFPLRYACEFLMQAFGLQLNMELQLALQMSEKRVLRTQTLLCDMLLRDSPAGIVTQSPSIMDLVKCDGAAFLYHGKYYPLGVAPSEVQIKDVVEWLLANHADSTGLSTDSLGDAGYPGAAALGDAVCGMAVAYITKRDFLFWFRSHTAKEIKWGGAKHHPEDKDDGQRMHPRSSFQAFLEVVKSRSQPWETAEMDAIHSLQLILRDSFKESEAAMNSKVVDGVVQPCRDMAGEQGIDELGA
Assay: SEC; 200 ug PhyB illuminated with 660 nm light, added in a 2:1 molar ratio to MBP-PIF (limiting MBP-PIF); 60 min at room temperature; Superdex 200 10/300 GL; PhyB detected at 671 nm
Settings: both partners purified

- binding result: binds
B1: MBP-PIF6_(1-100)-His6 (domain or fragment, A. thaliana, UniProt Q8L5W7 1-100, looked up)
chain: MMFLPTDYCCRLSDQEYMELVFENGQILAKGQRSNVSLHNQRTKSIMDLYEAEYNEDFMKSIIHGGGGAITNLGDTQVVPQSHVAAAHETNMLESNKHVD
notes: also called MBP-PIF(wt); pOSY061; source: E. coli BL21(DE3), purified (Ni-NTA); not shown: His6, C-terminal, kept

— publication PMC6488296, “Optogenetic control shows that kinetic proofreading regulates the activity of the T cell receptor” (eLife, 2019)
